T1: human CEACAM5 on cells (human, UniProt P06731 35-685)
T1 construct: tumour cell lines with endogenous CEACAM5, or B16F10 engineered to express hCEACAM5; also called CEACAM5 on MKN-45, HPAF-II, SK-CO-1, LoVo, BxPC-3, Kato-III, LS-174T, ZR-75-30; hCEACAM5-B16F10
T1 sequence: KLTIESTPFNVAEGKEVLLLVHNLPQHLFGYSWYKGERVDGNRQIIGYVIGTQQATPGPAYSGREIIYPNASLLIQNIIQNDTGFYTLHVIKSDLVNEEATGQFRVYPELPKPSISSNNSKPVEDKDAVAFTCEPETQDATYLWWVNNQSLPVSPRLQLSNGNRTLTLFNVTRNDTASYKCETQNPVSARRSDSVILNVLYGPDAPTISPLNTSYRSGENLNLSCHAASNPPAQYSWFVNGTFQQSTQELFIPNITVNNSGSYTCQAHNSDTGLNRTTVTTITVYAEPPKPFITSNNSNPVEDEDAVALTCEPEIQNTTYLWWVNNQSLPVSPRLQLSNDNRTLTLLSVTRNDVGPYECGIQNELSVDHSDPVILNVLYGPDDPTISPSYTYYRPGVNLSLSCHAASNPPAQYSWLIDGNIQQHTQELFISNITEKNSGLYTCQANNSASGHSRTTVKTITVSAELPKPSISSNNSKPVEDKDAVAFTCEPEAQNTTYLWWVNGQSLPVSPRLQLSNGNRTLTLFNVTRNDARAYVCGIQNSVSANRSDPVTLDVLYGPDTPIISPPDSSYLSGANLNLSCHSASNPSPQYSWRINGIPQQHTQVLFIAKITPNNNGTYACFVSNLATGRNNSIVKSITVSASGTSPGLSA

T2: Human CEACAM6 (human, UniProt P40199 35-320, limits assumed)
T2 sequence (looked up): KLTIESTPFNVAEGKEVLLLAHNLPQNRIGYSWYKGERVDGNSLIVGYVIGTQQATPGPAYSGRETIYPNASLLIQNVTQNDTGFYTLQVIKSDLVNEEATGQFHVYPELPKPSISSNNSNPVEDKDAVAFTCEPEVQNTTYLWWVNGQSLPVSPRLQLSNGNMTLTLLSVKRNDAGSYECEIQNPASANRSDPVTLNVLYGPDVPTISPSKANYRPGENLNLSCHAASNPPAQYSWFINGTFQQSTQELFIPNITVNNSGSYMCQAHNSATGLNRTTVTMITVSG

T3: Cyno NKG2D-mFc (cynomolgus monkey, UniProt P61252 78-216, limits assumed)
T3 construct: also called cynomolgus NKG2D fused to a mouse Fc
T3 sequence (looked up): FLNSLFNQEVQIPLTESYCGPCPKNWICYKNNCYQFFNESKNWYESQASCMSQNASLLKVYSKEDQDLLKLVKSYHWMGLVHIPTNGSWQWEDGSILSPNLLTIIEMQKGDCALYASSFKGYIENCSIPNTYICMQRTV

T4: soluble mouse Fc-human NKG2D dimer (human, UniProt P26718 78-216, limits assumed)
T4 construct: also called NKG2D-mFc; human NKG2D fused to a mouse Fc
T4 sequence (looked up): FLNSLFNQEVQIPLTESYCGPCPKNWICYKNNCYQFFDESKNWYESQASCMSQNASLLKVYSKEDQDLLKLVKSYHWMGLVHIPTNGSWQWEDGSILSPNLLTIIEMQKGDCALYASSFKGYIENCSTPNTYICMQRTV

T5: Human CEACAM5 (E398) (human, UniProt P06731 35-685, limits assumed)
T5 construct: also called hCEACAM5
T5 sequence: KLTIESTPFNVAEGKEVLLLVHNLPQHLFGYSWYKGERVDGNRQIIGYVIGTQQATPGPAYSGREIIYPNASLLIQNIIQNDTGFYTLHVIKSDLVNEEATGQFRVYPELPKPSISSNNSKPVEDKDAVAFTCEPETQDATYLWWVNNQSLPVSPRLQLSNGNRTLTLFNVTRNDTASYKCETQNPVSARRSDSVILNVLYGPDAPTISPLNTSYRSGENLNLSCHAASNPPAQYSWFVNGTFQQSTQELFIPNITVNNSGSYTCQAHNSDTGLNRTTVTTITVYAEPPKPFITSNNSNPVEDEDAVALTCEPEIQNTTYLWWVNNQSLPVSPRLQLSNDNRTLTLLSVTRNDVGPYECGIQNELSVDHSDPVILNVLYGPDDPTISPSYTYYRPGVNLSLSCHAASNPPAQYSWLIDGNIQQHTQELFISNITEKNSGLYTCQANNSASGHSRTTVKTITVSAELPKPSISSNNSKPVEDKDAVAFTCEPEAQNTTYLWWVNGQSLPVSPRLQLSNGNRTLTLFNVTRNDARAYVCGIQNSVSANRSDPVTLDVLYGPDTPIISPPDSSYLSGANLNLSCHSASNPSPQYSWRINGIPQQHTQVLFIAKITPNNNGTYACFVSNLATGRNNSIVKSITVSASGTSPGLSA


Tests used:
[1] = target: T1, human CEACAM5 on cells; assay: flow cytometry, MKN-45 cells
Procedure: MKN-45 and HPAF-II human cancer cell lines were diluted into FACS buffer and 100,000 cells of each cell type were seeded per well in duplicate into 96-well plates for FACS staining. The cells were washed with PBS, incubated in a 1:2000 dilution of live/dead dye in PBS for 15 minutes, and then washed with FACS buffer. AB0264, AB0411, AB0466, and AB0621 were diluted into FACS buffer, and 50 μl of each diluted TriNKET was added to the cells. After incubation on ice for 30-120 minutes, the cells were washed with FACS buffer. Anti-human IgG-Fc secondary antibody was diluted into FACS buffer, and 50 μl was added per well for detection of the bound TriNKETs. The cells were incubated for 30-60 minutes on ice and then washed with FACS buffer. 50 μl of fixation buffer was added to each well and the cells were incubated for 10 minutes at room temperature. The cells were washed with FACS buffer and resuspended in FACS buffer for analysis with ThermoFisher Attune NxT, BD FACS Celesta SN #H66034400085, or BD FACS Celesta SN #H66034400160.

[2] = target: T2, Human CEACAM6; assay: SPR, 37C, pH 7.4
Procedure: (§1) To determine the affinity and cross-reactivity of CEACAM5 TriNKET molecules, AB0411, AB0466, or AB0621 TriNKETs were captured using an anti-human Fc capture antibody (Cytiva, #BR100839) immobilized onto a Biacore CM5 standard surface sensor chip following manufacturer instructions. Human or cynomolgus CEACAM5 were titrated over captured AB0411, AB0466, and AB0621 as 2-fold serial dilutions starting from 300 nM. Association was monitored for 300 sec and dissociation was monitored for 600 sec. The assay was run at 37° C. at pH 7.4 and 6.0. The surface of the CM5 chip was regenerated with 10 mM glycine pH 1.5 for 20 sec at 100 μL/min.
Binding to human and cynomolgus CEACAM1, 6, and 8 was assessed by SPR using the same protocol as for CEACAM5 but using up to 600 and 1200 nM for titration of each protein. There were no detectable binding signals at these concentrations for AB0621. In contrast, reproducible weak binding signals were detected for AB0411 and AB0466, but these two TriNKETs also bound to different epitope(s) on the N-terminus of CEACAM5. Typical weak binding sensorgrams for AB0411 and AB0466 against human CEACAM1 and 6 indicated weak but notable signals compared to AB0621. […]

[3] = target: T3, Cyno NKG2D-mFc; assay: SPR, NKG2D-mFc captured, 37C, pH 6.0
Procedure: (§2) Binding to NKG2D was assessed by SPR using a mouse Fc capture kit (Cytiva, #BR100838) immobilized onto a CM5 chip. Human and cynomolgus NKG2D fused to a mouse Fc were captured and AB0411, AB0466, or AB0621 was titrated from 600 nM.

[4] = target: T4, soluble mouse Fc-human NKG2D dimer; assay: SPR, NKG2D-mFc captured, 37C, pH 6.0
Procedure: as §2

[5] = target: T5, Human CEACAM5 (E398); assay: SPR, anti-hFc capture, 37C, pH 7.4
Procedure: as §1

EC50 [1]	Max FOB [1]	Kd [3]	koff [3]	kon [3]	Kd [4]	koff [4]	kon [4]	Kd [5]	kon [5]	Binder	binding result [2]
15.2 nM	111 fold over background	420 nM	0.11 s⁻¹	310000 M⁻¹ s⁻¹	480 nM	0.12 s⁻¹	240000 M⁻¹ s⁻¹	7.2 nM	190000 M⁻¹ s⁻¹	AB0466 F3' CEACAM5 TriNKET (bispecific antibody, human IgG1, kappa) not shown heavy: EVQLVESGGGLVKPGGSLRLSCAASGFTFSSYSMNWVRQAPGKGLEWVSSISSSSSYIYYADSVKGRFTISRDNAKNSLYLQMNSLRAEDTAVYYCARGAPIGAAAGWFDPWGQGTLVTVSSASTKGPSVFPLAPSSKSTSGGTAALGCLVKDYFPEPVTVSWNSGALTSGVHTFPAVLQSSGLYSLSSVVTVPSSSLGTQTYICNVNHKPSNTKVDKKVEPKSCDKTHTCPPCPAPELLGGPSVFLFPPKPKDTLMISRTPEVTCVVVDVSHEDPEVKFNWYVDGVEVHNAKTKPREEQYNSTYRVVSVLTVLHQDWLNGKEYKCKVSNKALPAPIEKTISKAKGQPREPQVCTLPPSRDELTENQVSLTCLVKGFYPSDIAVEWESNGQPENNYKTTPPVLDSDGSFFLYSWLTVDKSRWQQGNVFSCSVMHEALHNHYTQKSLSLSPG light: DIQMTQSPSSVSASVGDRVTITCRASQGISSWLAWYQQKPGKAPKLLIYAASSLQSGVPSRFSGSGSGTDFTLTISSLQPEDFATYYCQQGVSFPRTFGGGTKVEIKRTVAAPSVFIFPPSDEQLKSGTASVVCLLNNFYPREAKVQWKVDNALQSGNSQESVTEQDSKDSTYSLSSTLTLSKADYEKHKVYACEVTHQGLSSPVTKSFNRGEC	no binding (tested: up to 600 and 1200 nM)
16.2 nM	120 fold over background	500 nM	0.14 s⁻¹	270000 M⁻¹ s⁻¹	490 nM	0.13 s⁻¹	280000 M⁻¹ s⁻¹	1.7 nM	270000 M⁻¹ s⁻¹	AB0411 F3' CEACAM5 TriNKET (bispecific antibody, human IgG1, kappa) DIQLTQSPATLSVSPGERATLSCRASQSVSSSYLAWYQQKPGQAPRLLIYGASSRATGIPDRFSGSGSGTDFTLTISRLEPEDFAVYYCQQYNNWPLTFGCGTKVEIKGGGGSGGGGSGGGGSGGGGSQVQLVQSGGGLVQPGGSLRLSCAASGFTFTSYAMSWVRQAPGKCLEWVSAISGTGDSTFYADSVKGRFTFSRDNSKNTLYLQMNSLRAEDTAVYYCAKDLGWLQYGLFDYWGQGTLVTVSSGSDKTHTCPPCPAPELLGGPSVFLFPPKPKDTLMISRTPEVTCVVVDVSHEDPEVKFNWYVDGVEVHNAKTKPREEQYNSTYRVVSVLTVLHQDWLNGKEYKCKVSNKALPAPIEKTISKAKGQPREPRVYTLPPCRDELTKNQVSLTCLVKGFYPSDIAVEWESNGQPENNYKTTPPVLVSDGSFTLYSKLTVDKSRWQQGNVFSCSVMHEALHNHYTQKSLSLSPG heavy: EVQLVESGGGLVKPGGSLRLSCAASGFTFSSYSMNWVRQAPGKGLEWVSSISSSSSYIYYADSVKGRFTISRDNAKNSLYLQMNSLRAEDTAVYYCARGAPIGAAAGWFDPWGQGTLVTVSSASTKGPSVFPLAPSSKSTSGGTAALGCLVKDYFPEPVTVSWNSGALTSGVHTFPAVLQSSGLYSLSSVVTVPSSSLGTQTYICNVNHKPSNTKVDKKVEPKSCDKTHTCPPCPAPELLGGPSVFLFPPKPKDTLMISRTPEVTCVVVDVSHEDPEVKFNWYVDGVEVHNAKTKPREEQYNSTYRVVSVLTVLHQDWLNGKEYKCKVSNKALPAPIEKTISKAKGQPREPQVCTLPPSRDELTENQVSLTCLVKGFYPSDIAVEWESNGQPENNYKTTPPVLDSDGSFFLYSWLTVDKSRWQQGNVFSCSVMHEALHNHYTQKSLSLSPG light: DIQMTQSPSSVSASVGDRVTITCRASQGISSWLAWYQQKPGKAPKLLIYAASSLQSGVPSRFSGSGSGTDFTLTISSLQPEDFATYYCQQGVSFPRTFGGGTKVEIKRTVAAPSVFIFPPSDEQLKSGTASVVCLLNNFYPREAKVQWKVDNALQSGNSQESVTEQDSKDSTYSLSSTLTLSKADYEKHKVYACEVTHQGLSSPVTKSFNRGEC	
24.6 nM	55 fold over background									AB0264 F3' CEACAM5 TriNKET (bispecific antibody, human IgG1, kappa) DIVMTQSPDSLAVSLGERATINCKSSHSLLYGNFQNNYLAWYQQKPGQPPKLLIYWASTRESGVPDRFSGSGSGTDFTLTISSLQAEDVAVYYCQQYYSYPYTFGCGTKLEIKGGGGSGGGGSGGGGSGGGGSQVQLVQSGAEVKKPGASVKVSCKASGYTFTAYTIHWVRQAPGQCLEWMGYINPSSGYTEYNQKFKDRTTLTADTSIPTAYMELSRLRSDDTAVYYCTREGGLLWFDYWGQGTLVTVSSGSDKTHTCPPCPAPELLGGPSVFLFPPKPKDTLMISRTPEVTCVVVDVSHEDPEVKFNWYVDGVEVHNAKTKPREEQYNSTYRVVSVLTVLHQDWLNGKEYKCKVSNKALPAPIEKTISKAKGQPREPRVYTLPPCRDELTKNQVSLTCLVKGFYPSDIAVEWESNGQPENNYKTTPPVLVSDGSFTLYSKLTVDKSRWQQGNVFSCSVMHEALHNHYTQKSLSLSPG heavy: EVQLVESGGGLVKPGGSLRLSCAASGFTFSSYSMNWVRQAPGKGLEWVSSISSSSSYIYYADSVKGRFTISRDNAKNSLYLQMNSLRAEDTAVYYCARGAPIGAAAGWFDPWGQGTLVTVSSASTKGPSVFPLAPSSKSTSGGTAALGCLVKDYFPEPVTVSWNSGALTSGVHTFPAVLQSSGLYSLSSVVTVPSSSLGTQTYICNVNHKPSNTKVDKKVEPKSCDKTHTCPPCPAPELLGGPSVFLFPPKPKDTLMISRTPEVTCVVVDVSHEDPEVKFNWYVDGVEVHNAKTKPREEQYNSTYRVVSVLTVLHQDWLNGKEYKCKVSNKALPAPIEKTISKAKGQPREPQVCTLPPSRDELTENQVSLTCLVKGFYPSDIAVEWESNGQPENNYKTTPPVLDSDGSFFLYSWLTVDKSRWQQGNVFSCSVMHEALHNHYTQKSLSLSPG light: DIQMTQSPSSVSASVGDRVTITCRASQGISSWLAWYQQKPGKAPKLLIYAASSLQSGVPSRFSGSGSGTDFTLTISSLQPEDFATYYCQQGVSFPRTFGGGTKVEIKRTVAAPSVFIFPPSDEQLKSGTASVVCLLNNFYPREAKVQWKVDNALQSGNSQESVTEQDSKDSTYSLSSTLTLSKADYEKHKVYACEVTHQGLSSPVTKSFNRGEC	no binding (tested: up to 600 and 1200 nM)

Reference: patent publication US20240124607A1 (Merck Sharp & Dohme, published 2024)
